This assay has as its target T1, FcγRIIb extracellular domain with C-terminal His tag (human, UniProt P31994 43-217).
T1 construct: extracellular domain; also called FcgRIIb; 2b
T1 sequence (looked up): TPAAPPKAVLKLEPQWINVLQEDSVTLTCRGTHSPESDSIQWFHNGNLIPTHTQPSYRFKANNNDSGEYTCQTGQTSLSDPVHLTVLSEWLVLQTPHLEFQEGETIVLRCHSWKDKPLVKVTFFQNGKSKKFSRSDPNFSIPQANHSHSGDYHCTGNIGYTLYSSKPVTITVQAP
Briefly: SPR (Biacore), relative binding. As to the method:
Analysis of interaction between objective antibody and the FcγR was carried out using Biacore T100 (GE Healthcare). HBS-EP+ (GE Healthcare) was used as the running buffer, and the measurement temperature was set to 25° C. Chips produced by immobilizing the antigen peptide by the amine coupling method to a Series S Sencor Chip CM5 (GE Healthcare), or alternatively, chips produced by allowing preliminarily biotinylated antigen peptides to interact with and immobilize onto a Series S Sensor Chip SA (certified) (GE Healthcare) were used. Antibodies of interest were captured onto an antigen peptide-immobilized chip, and allowed to interact to each FcγR diluted with running buffer. To regenerate and repeatedly use the chip, the antibodies captured on the chip were washed off by reacting 10 mM glycine-HCl, pH 1.5.

B1: GpH7-B3 variant P331_06M/GpL16-k0 (antibody, human IgG1, kappa)
heavy: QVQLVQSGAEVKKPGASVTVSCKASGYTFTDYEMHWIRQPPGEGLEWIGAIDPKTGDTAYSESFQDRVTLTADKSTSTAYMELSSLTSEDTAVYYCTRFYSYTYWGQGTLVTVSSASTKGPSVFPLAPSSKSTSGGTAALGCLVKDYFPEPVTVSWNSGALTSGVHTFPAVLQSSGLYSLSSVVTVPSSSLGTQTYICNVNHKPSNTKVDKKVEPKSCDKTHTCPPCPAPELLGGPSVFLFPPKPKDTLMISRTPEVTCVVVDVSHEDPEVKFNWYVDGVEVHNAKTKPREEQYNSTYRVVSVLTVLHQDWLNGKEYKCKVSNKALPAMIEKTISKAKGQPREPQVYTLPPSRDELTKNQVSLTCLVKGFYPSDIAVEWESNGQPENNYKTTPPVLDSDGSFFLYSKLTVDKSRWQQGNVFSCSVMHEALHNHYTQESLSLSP
light: DIVMTQSPLSLPVTPGEPASISCQASESLVHSNRNTYLHWYLQKPGQSPQLLIYKVSNRFSGVPDRFSGSGSGTDFTLKISRVEAEDVGVYYCSQNTHVPPTFGQGTKVEIERTVAAPSVFIFPPSDEQLKSGTASVVCLLNNFYPREAKVQWKVDNALQSGNSQESVTEQDSKDSTYSLSSTLTLSKADYEKHKVYACEVTHQGLSSPVTKSFNRGEC
notes: also called Ho Ab P331_06M
With B1, the Ho/Con_2b was 71.5 % of HoCon Ab GpH7-B3/GpL16-k0.

B2: GpH7-A5/GpH7-B3 variant G237_02A/GpL16-k0 (antibody, human IgG1, kappa)
heavy 1: not shown
heavy 2: not shown
light: B1 light
notes: also called He Ab G237_02A
On to B2, for which the He/Con_2b is 124 % of HeCon Ab GpH7-A5/GpH7-B3/GpL16-k0.

B3: GpH7-B3 variant S239_10E/GpL16-k0 (antibody, human IgG1, kappa)
heavy: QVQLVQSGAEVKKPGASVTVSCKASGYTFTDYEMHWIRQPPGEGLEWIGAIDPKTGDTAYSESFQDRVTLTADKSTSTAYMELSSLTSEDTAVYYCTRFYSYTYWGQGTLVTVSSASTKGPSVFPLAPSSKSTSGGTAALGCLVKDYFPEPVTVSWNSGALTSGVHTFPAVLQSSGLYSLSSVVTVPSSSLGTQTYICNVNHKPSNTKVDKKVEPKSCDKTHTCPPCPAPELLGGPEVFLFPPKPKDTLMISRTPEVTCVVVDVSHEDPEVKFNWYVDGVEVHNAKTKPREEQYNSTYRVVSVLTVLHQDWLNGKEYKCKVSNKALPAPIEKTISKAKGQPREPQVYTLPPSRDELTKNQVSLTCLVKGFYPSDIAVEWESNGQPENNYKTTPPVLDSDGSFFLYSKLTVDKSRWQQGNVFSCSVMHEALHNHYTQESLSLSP
light: B1 light
notes: also called Ho Ab S239_10E
With B3, the Ho/Con_2b is 175 % of HoCon Ab GpH7-B3/GpL16-k0.

B4: GpH7-A5/GpH7-B3 variant I332_02A/GpL16-k0 (antibody, human IgG1, kappa)
heavy 1: not shown
heavy 2: not shown
light: B1 light
notes: also called He Ab I332_02A
With B4, the He/Con_2b was 103 % of HeCon Ab GpH7-A5/GpH7-B3/GpL16-k0.

B5: GpH7-A5/GpH7-B3 variant I332_14T/GpL16-k0 (antibody, human IgG1, kappa)
heavy 1: not shown
heavy 2: not shown
light: B1 light
notes: also called He Ab I332_14T
Turning to B5, the He/Con_2b is 106 % of HeCon Ab GpH7-A5/GpH7-B3/GpL16-k0.

B6: GpH7-A5/GpH7-B3 variant G237_19Q/GpL16-k0 (antibody, human IgG1, kappa)
heavy 1: not shown
heavy 2: not shown
light: B1 light
notes: also called He Ab G237_19Q
As to B6, the He/Con_2b was 108 % of HeCon Ab GpH7-A5/GpH7-B3/GpL16-k0.

B7: GpH7-B3 variant P331_20W/GpL16-k0 (antibody, human IgG1, kappa)
heavy: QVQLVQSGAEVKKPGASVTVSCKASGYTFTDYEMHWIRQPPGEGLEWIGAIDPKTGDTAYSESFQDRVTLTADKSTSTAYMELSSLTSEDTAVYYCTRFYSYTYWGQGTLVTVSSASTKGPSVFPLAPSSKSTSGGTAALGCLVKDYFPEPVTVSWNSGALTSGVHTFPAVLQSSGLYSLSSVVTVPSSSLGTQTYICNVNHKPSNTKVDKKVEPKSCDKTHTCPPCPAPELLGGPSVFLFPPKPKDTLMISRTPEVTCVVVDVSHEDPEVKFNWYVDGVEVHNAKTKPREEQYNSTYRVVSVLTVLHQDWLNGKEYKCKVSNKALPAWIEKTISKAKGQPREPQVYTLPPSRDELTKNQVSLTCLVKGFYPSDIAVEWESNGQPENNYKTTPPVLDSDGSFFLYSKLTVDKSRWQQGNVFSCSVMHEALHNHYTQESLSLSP
light: B1 light
notes: also called Ho Ab P331_20W
Take B7: the Ho/Con_2b was 111 % of HoCon Ab GpH7-B3/GpL16-k0.

B8: GpH7-A5/GpH7-B3 variant G237_15Y/GpL16-k0 (antibody, human IgG1, kappa)
heavy 1: not shown
heavy 2: not shown
light: B1 light
notes: also called He Ab G237_15Y
B8: the He/Con_2b is 152 % of HeCon Ab GpH7-A5/GpH7-B3/GpL16-k0.

B9: GpH7-A5/GpH7-B3 variant G237_08L/GpL16-k0 (antibody, human IgG1, kappa)
heavy 1: not shown
heavy 2: not shown
light: B1 light
notes: also called He Ab G237_08L
Take B9: the He/Con_2b was 148 % of HeCon Ab GpH7-A5/GpH7-B3/GpL16-k0.

B10: GpH7-B3 variant T335_10E/GpL16-k0 (antibody, human IgG1, kappa)
heavy: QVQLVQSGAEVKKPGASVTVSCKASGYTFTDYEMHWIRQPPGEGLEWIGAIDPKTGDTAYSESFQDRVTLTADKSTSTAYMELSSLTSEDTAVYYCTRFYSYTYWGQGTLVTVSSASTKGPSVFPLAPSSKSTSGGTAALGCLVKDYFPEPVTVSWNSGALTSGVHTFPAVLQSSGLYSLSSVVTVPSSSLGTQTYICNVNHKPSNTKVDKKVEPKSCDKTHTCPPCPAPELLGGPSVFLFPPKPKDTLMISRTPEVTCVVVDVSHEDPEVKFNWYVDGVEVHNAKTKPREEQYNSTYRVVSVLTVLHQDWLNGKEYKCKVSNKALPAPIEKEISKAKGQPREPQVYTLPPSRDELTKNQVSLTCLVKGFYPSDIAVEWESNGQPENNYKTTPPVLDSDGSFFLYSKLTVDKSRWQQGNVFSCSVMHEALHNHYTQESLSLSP
light: B1 light
notes: also called Ho Ab T335_10E
For the molecule B10, the Ho/Con_2b is 108 % of HoCon Ab GpH7-B3/GpL16-k0.

B11: GpH7-B3 variant T335_07I/GpL16-k0 (antibody, human IgG1, kappa)
heavy: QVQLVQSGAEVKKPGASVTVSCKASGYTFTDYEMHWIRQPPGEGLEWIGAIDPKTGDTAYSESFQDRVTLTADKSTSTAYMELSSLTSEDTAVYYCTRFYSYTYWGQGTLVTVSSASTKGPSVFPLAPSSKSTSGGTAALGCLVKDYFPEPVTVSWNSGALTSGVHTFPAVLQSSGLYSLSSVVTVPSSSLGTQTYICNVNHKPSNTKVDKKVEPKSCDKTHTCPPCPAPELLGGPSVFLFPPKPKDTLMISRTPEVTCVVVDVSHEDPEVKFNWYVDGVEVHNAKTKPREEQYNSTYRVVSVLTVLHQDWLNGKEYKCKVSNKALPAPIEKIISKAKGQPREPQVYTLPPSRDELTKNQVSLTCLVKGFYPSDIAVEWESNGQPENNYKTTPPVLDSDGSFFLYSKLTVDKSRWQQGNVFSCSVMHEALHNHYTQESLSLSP
light: B1 light
notes: also called Ho Ab T335_07I
On to B11, for which the Ho/Con_2b is 104 % of HoCon Ab GpH7-B3/GpL16-k0.

B12: GpH7-B3 variant P331_07I/GpL16-k0 (antibody, human IgG1, kappa)
heavy: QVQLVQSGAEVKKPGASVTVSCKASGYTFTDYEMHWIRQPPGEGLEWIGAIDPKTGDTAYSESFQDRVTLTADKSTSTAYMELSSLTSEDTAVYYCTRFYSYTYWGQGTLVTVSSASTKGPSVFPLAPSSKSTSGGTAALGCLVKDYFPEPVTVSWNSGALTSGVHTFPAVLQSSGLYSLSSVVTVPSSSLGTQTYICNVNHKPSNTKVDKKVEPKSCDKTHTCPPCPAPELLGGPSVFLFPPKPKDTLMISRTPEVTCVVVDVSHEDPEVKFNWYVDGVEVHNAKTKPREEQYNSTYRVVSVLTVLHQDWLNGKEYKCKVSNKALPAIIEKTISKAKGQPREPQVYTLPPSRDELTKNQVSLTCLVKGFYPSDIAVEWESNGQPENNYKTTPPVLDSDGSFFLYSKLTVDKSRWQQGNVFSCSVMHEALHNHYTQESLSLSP
light: B1 light
notes: also called Ho Ab P331_07I
In the case of B12, the Ho/Con_2b is 63.3 % of HoCon Ab GpH7-B3/GpL16-k0.

B13: GpH7-B3 variant P331_15Y/GpL16-k0 (antibody, human IgG1, kappa)
heavy: not shown
light: B1 light
notes: also called Ho Ab P331_15Y
For the molecule B13, the Ho/Con_2b is 111 % of HoCon Ab GpH7-B3/GpL16-k0.

B14: GpH7-B3 variant S337_16H/GpL16-k0 (antibody, human IgG1, kappa)
heavy: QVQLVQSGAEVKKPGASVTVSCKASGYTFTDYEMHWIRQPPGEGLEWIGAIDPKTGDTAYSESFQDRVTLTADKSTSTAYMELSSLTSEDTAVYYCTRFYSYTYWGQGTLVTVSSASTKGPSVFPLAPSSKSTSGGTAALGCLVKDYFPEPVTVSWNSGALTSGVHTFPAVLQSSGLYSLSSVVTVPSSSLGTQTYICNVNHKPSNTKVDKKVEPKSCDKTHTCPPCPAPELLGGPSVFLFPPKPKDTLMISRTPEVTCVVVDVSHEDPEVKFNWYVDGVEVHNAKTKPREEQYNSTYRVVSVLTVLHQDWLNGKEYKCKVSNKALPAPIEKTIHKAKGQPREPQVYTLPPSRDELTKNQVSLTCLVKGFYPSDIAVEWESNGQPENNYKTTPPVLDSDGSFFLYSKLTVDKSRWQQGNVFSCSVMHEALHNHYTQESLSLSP
light: B1 light
notes: also called Ho Ab S337_16H
Consider B14, for which the Ho/Con_2b is 103 % of HoCon Ab GpH7-B3/GpL16-k0.

B15: GpH7-B3 variant P331_16H/GpL16-k0 (antibody, human IgG1, kappa)
heavy: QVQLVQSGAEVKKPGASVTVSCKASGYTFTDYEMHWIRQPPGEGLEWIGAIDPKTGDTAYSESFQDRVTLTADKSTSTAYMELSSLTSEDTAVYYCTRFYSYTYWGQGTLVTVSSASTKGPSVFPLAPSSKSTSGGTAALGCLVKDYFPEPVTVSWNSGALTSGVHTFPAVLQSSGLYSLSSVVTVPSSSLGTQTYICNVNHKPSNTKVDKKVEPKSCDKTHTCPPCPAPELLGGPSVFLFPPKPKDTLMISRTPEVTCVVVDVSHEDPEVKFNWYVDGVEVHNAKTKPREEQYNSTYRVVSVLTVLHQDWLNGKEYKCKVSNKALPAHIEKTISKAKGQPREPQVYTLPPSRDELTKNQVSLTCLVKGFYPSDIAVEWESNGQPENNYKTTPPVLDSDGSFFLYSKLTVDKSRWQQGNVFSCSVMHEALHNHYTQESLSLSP
light: B1 light
notes: also called Ho Ab P331_16H
For the molecule B15, the Ho/Con_2b was 100 % of HoCon Ab GpH7-B3/GpL16-k0.

B16: GpH7-A5/GpH7-B3 variant A330_01G/GpL16-k0 (antibody, human IgG1, kappa)
heavy 1: not shown
heavy 2: not shown
light: B1 light
notes: also called He Ab A330_01G
In the case of B16, the He/Con_2b is 104 % of HeCon Ab GpH7-A5/GpH7-B3/GpL16-k0.

B17: GpH7-B3 variant S267_19Q/GpL16-k0 (antibody, human IgG1, kappa)
heavy: not shown
light: B1 light
notes: also called Ho Ab S267_19Q
On to B17, for which the Ho/Con_2b is 185 % of HoCon Ab GpH7-B3/GpL16-k0.

B18: GpH7-A5/GpH7-B3 variant A330_05P/GpL16-k0 (antibody, human IgG1, kappa)
heavy 1: not shown
heavy 2: not shown
light: B1 light
notes: also called He Ab A330_05P
Turning to B18, the He/Con_2b was 137 % of HeCon Ab GpH7-A5/GpH7-B3/GpL16-k0.

B19: GpH7-A5/GpH7-B3 variant G237_06M/GpL16-k0 (antibody, human IgG1, kappa)
heavy 1: not shown
heavy 2: not shown
light: B1 light
notes: also called He Ab G237_06M
Regarding B19, the He/Con_2b was 130 % of HeCon Ab GpH7-A5/GpH7-B3/GpL16-k0.

B20: GpH7-B3 variant T335_16H/GpL16-k0 (antibody, human IgG1, kappa)
heavy: not shown
light: B1 light
notes: also called Ho Ab T335_16H
For the molecule B20, the Ho/Con_2b is 97.2 % of HoCon Ab GpH7-B3/GpL16-k0.

B21: GpH7-A5/GpH7-B3 variant H268_05P/GpL16-k0 (antibody, human IgG1, kappa)
heavy 1: not shown
heavy 2: not shown
light: B1 light
notes: also called He Ab H268_05P
Regarding B21, the He/Con_2b is 116 % of HeCon Ab GpH7-A5/GpH7-B3/GpL16-k0.

B22: GpH7-B3 variant S267_01G/GpL16-k0 (antibody, human IgG1, kappa)
heavy: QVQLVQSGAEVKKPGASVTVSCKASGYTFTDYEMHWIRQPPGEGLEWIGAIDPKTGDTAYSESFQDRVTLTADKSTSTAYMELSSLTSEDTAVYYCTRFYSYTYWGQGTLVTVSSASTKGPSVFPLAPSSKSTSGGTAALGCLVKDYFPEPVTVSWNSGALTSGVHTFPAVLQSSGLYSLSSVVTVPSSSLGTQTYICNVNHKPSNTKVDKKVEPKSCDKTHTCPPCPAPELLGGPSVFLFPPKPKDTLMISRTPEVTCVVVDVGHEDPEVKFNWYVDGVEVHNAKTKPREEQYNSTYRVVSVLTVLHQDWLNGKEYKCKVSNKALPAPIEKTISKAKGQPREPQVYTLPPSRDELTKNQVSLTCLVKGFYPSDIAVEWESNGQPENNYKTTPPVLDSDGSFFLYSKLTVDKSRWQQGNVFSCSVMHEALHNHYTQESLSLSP
light: B1 light
notes: also called Ho Ab S267_01G
Consider B22, for which the Ho/Con_2b was 97 % of HoCon Ab GpH7-B3/GpL16-k0.

B23: GpH7-B3 variant S337_08L/GpL16-k0 (antibody, human IgG1, kappa)
heavy: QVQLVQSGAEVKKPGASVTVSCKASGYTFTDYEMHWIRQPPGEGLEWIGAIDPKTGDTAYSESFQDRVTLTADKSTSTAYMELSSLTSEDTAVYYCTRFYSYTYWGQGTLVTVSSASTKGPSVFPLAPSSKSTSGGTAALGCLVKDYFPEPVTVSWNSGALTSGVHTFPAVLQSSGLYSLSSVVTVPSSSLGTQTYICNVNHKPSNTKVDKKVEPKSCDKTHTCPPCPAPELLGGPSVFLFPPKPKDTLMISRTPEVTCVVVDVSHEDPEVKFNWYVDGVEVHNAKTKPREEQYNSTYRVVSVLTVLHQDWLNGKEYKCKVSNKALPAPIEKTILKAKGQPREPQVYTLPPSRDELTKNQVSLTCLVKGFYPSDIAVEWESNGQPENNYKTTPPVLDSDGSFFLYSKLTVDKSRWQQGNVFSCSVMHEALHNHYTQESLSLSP
light: B1 light
notes: also called Ho Ab S337_08L
With B23, the Ho/Con_2b was 90.7 % of HoCon Ab GpH7-B3/GpL16-k0.

B24: GpH7-B3 variant S239_05P/GpL16-k0 (antibody, human IgG1, kappa)
heavy: not shown
light: B1 light
notes: also called Ho Ab S239_05P
On to B24, for which the Ho/Con_2b was 61 % of HoCon Ab GpH7-B3/GpL16-k0.

B25: GpH7-B3 variant T335_18N/GpL16-k0 (antibody, human IgG1, kappa)
heavy: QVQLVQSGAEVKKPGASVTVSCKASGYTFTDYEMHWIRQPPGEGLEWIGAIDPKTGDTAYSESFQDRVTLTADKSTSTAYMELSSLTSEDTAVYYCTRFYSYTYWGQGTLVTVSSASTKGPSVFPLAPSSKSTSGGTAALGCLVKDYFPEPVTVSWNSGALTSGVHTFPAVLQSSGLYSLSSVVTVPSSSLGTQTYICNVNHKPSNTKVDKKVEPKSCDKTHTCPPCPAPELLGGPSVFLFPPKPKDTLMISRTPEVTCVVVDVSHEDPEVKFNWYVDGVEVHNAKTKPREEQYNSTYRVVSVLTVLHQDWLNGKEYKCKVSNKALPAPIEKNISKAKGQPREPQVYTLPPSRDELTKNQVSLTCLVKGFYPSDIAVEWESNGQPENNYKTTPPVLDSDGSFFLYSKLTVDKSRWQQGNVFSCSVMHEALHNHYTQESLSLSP
light: B1 light
notes: also called Ho Ab T335_18N
For B25, the Ho/Con_2b was 96.1 % of HoCon Ab GpH7-B3/GpL16-k0.

B26: GpH7-B3 variant V266_06M/GpL16-k0 (antibody, human IgG1, kappa)
heavy: not shown
light: B1 light
notes: also called Ho Ab V266_06M
Consider B26, for which the Ho/Con_2b was 231 % of HoCon Ab GpH7-B3/GpL16-k0.

Values taken from US20150344570A1 (published 2015).
